Measurements published in US20170129967A1 (CHEMOTHERAPEUTISCHES FORSCHUNGSINSTITUT GEORG SPEYER HAUS, published 2017).

Molecular target: human ErbB2 (HER2) expressed on cells (Renca-lacZ/ErbB2 murine renal cell carcinoma cells); MDA-MB453 human … (human, UniProt P04626 23-1255)
Experiment: cell-based or functional assay

B1: chimeric antigen receptor (CAR) 5.28.z, on the surface of clonal NK-92/5.28.z cells (receptor)
chain: QVQLQQSGPELKKPGETVKISCKASGYPFTNYGMNWVKQAPGQGLKWMGWINTSTGESTFADDFKGRFDFSLETSANTAYLQINNLKSEDSATYFCARWEVYHGYVPYWGQGTTVTVSSGGGGSGGGGSGGGGSDIQLTQSHKFLSTSVGDRVSITCKASQDVYNAVAWYQQKPGQSPKLLIYSASSRYTGVPSRFTGSGSGPDFTFTISSVQAEDLAVYFCQQHFRTPFTFGSGTKLEIKALSNSIMYFSHFVPVFLPAKPTTTPAPRPPTPAPTIASQPLSLRPEACRPAAGGAVHTRGLDKPFWVLVVVGGVLACYSLLVTVAFIIFWVRSKRSRLLHSDYMNMTPRRPGPTRKHYQPYAPPRDFAAYRSRVKFSRSADAPAYQQGQNQLYNELNLGRREEYDVLDKRRGRDPEMGGKPRRKNPQEGLYNELQKDKMAEAYSEIGMKGERRRGKGHDGLYQGLSTATKDTYDALHMQALPPR
specific lysis at an E/T ratio of 10:1 (NK-92/5.28.z irradiated with 10 Gy, MDA-MB453 target cells, 2 h co-incubation): 65 % specific lysis
